Assay results reported in patent US20150337012A1 (HOYA, published 2015).
Where no end group is shown, it is not given here. The star is where a group is joined. FITC = O=C1OC2(c3ccc(O)cc3Oc3cc(O)ccc32)c2ccc(NC(=S)*)cc21; Ahx = NCCCCCC(=O)O

target: T1, recombinant human EGFR/Fc chimera (rhEGFR, R&D Systems) (human, UniProt P00533 25-645); experiment: phage binding to plate-coated protein, titer ratio
T1 construct: Bought reagent; Coated on the plate at 1 ug/well; also called genetically modified EGFR protein; not shown: human IgG1 Fc moiety of the chimera
Procedure: After removal of the blocking buffer, the wells were washed with 200 μl of 0.5% TBST being the washing solution three times and thereto was finally added 100 μl of 0.5% TBST. […] In the reaction, the mixture was gently shaken at room temperature for 1 hour. The reaction solution was removed and the wells were washed with 200 μl of 0.5% TBST ten times, 100 μl of 0.2 M glycine-HCl (pH 2.2) was added to the wells and stirred by pipetting, thereafter gently shaking at room temperature for 10 minutes. The eluate was collected to a microtube from the wells and added with 15 μl of 1 M Tris-HCl (pH 9.1) to be neutralized and a target binding phage solution was thus obtained. The binding ability of the collected phage was examined by a measurement of a titer.
A rhEGFR that is a target protein, a recombinant human ErbB2(rhErbB2, PROSPEC) as a HER2 protein belonging to the ErbB family same as an EGFR, are combinant human IGF-1R, CF(rhIGF-1R, R&D Systems) as an IGF-1R protein that is one of extracellular proteins were added to a 96-well microplate to be 1 μg/well, and stood still at 4° C. overnight to be thus formed into a solid phase. A protein solution was removed, 300 μl of a blocking buffer was added and the mixture was incubated at 37° C. for 1 hour to thus block the wells. After removal of the blocking buffer, the wells were washed three times with 200 μl of 0.5% TBST washing solution, and finally 100 μl of 0.5% TBST was added thereto. […] In the reaction, the mixture was gently shaken at room temperature for 1 hour. The reaction solution was removed, the wells were washed with 200 μl of 0.5% TEST ten times, and 100 μl of 0.2 M glycine-HCl (pH 2.2) was then added to the wells and stirred by pipetting, thereafter gently shaking at room temperature for 10 minutes. The eluate was collected to a microtube from the wells and added with 15 μl of 1 M Tris-HCl (pH 9.1) to be neutralized and a target binding phage solution was thus obtained.

Binder	fold binding to rhEGFR over binding to BSA	fold binding to rhEGFR over binding to rhErbB2	fold binding to rhEGFR over binding to rhIGF-1R	fold binding to rhEGFR over binding to rhIgG1
LHQSEWMYVDIH (peptide, not shown: large carriers, tested as phage particles) [I-1015 phage (peptide displayed phage from the D12 library)]	14000 times	4740 times	7710 times	19000 times
FHDWLPEVSPPD (peptide, not shown: large carriers, tested as phage particles) [I-1012 phage (peptide displayed phage from the D12 library)]	3100 times	1580 times	4340 times	3420 times
WHLSDLWQNAWH (peptide, not shown: large carriers, tested as phage particles, 1x10^10 PFU per well) [I-1010 phage (peptide displayed phage from the D12 library)]	3810 times	1760 times	2830 times	1660 times

target: T1, recombinant human EGFR/Fc chimera …; experiment: substituted phage binding to plate-coated rhEGFR, titer ratio
Procedure: A rhEGFR that is a target protein was added to a 96-well microplate to be 1 μg/well, and stood still at 4° C. overnight to be thus formed into a solid phase. A protein solution was removed, 300 μl of a blocking buffer (5 mg/mL BSA/TBS) was added and the mixture was incubated at 37° C. for 1 hour to thus block the wells. After removal of the blocking buffer, the wells were washed with 200 μl of 0.5% TBST (0.5% Tween20/TBS) being the washing solution three times and thereto was finally added 100 μl of 0.5% TEST. An amplification phage solution was added to the above described wells to have 1×10¹⁰ PFU and mixed by pipetting. In the reaction, the mixture was gently shaken at room temperature for 1 hour. The reaction solution was removed and the wells were washed with 200 μl of 0.5% TBST ten times, 100 μl of 0.2 M glycine-HCl (pH 2.2) was then added to the wells and stirred by pipetting, thereafter gently shaking at room temperature for 10 minutes. The eluate was collected to a microtube from the wells and added with 15 μl of 1 M Tris-HCl (pH 9.1) to be neutralized and a target binding phage solution was thus obtained. The binding ability of the collected phage was examined by a measurement of a titer.

Binder	binding result
WHLSDLFQNAWH (peptide, not shown: large carriers, also called W7F) [I-1010 amino acid substituted phage, 7th W substituted with F]	binds
WHMSDLWANAWH (peptide, not shown: large carriers, Phage with two substituted amino acids; also called L3M/Q8A) [I-1010 phage in which the 3rd L was substituted with M and the 8th Q was substituted with A]	binds
FHLSDLWANAWH (peptide, not shown: large carriers, Phage with two substituted amino acids; also called W1F/Q8A) [I-1010 phage in which the 1st W was substituted with F and the 8th Q was substituted with A]	binds
FHLSDLWQNAWH (peptide, not shown: large carriers, also called W1F) [I-1010 amino acid substituted phage, 1st W substituted with F]	binds
WHISDLWQNAWH (peptide, not shown: large carriers, also called L3I) [I-1010 amino acid substituted phage, 3rd L substituted with I]	binds
WHMSDLWQNAWH (peptide, not shown: large carriers, also called L3M) [I-1010 amino acid substituted phage, 3rd L substituted with M]	binds
WHLSDLYQNAWH (peptide, not shown: large carriers, also called W7Y) [I-1010 amino acid substituted phage, 7th W substituted with Y]	binds
WHVSDLWQNAWH (peptide, not shown: large carriers, also called L3V) [I-1010 amino acid substituted phage, 3rd L substituted with V]	binds

target: T2, EGFR expressed by A-431 cells (human, UniProt P00533 25-1210); experiment: confocal fluorescence microscopy of A-431 cells with 100 µM FITC-labeled peptide
T2 construct: whole, on cells; also called EGFR expressed by cells
Procedure: A-431 cells were inoculated in a glass bottom dish to be 20×10⁴ cells/dish and MCF7 cells were inoculated in a glass bottom dish to be 75×10⁴ cells/dish, and cultured at 37° C. in the condition of CO₂ for 24 hours. After culturing each kind of the cells for a specified time, EGF was added to have a concentration of 100 ng/mL and the mixture was cultured for 6 days. Thereafter, the culture solution in the dish was removed and washed with 1000 μL of a growth medium at 37° C. ten times. […] A staining fluid was removed and washed with 1 mL of a growth medium at 37° C. three times and thereto was finally added 1 mL of the medium. For observation, fluorescent observation was carried out by irradiating an exciting light laser with a wavelength of 488 nm using a confocal microscope (Leica SP2).

Binder	binding result
{FITC-Ahx}-WHLSDLWQNAWH [Pep055-F (FITC-labeled Pep055)]	binds

target: T2, EGFR expressed by A-431 cells; experiment: phage binding to A-431 cells at 4 °C, titer ratio corrected for the number of collected cells
Procedure: A-431 cells were inoculated in a 6-well culture plate at 40×10⁴ cells/well and cultured at 37° C. in the condition of 5% CO₂ overnight. The plate was incubated at 4° C. for 30 minutes and a medium in each well was removed, and treated by washing with 1 mL of 1% BSA/PBS twice. […] After the reaction, the reaction solution was removed and washed with 1 mL of 1% BSA/PBS ten times to remove non-binding phages. Thereto was added 100 μl of a 0.05% trypsin/0.53 mM EDTA solution and the reaction solution was incubated at 37° C. for about 10 minutes and added with 900 μl of a growth medium to prepare a collected phage solution. A titer of each collected phage solution was measured.

Binder	fold titer ratio over that of the M13KE phage
WHLSDLWQNAWH (peptide, not shown: large carriers, tested as phage particles, 1x10^10 PFU per well) [I-1010 phage (peptide displayed phage from the D12 library)]	45 times
